Results on 8 substances are retold here after IntAct's records for PubMed 30126976.

Assay [1] addresses scrib_human SCRIB (UniProt Q14160).
A further assay concerns the target dlg1_human DLG1 (UniProt Q12959).
For assay [2], the target named is ks6a2_human RPS6KA2 (UniProt Q15349).
The target is the same in assay [3]. This is another data set of the same source.
Assay [4] concerns the target scrib_human SCRIB (UniProt Q14160). The source holds these as a separate data set.
For assay [5] the target is unchanged. This is another data set of the same source.
The target of assay [6] is crcm_human MCC (UniProt P23508).
Chain of crcm_human MCC (P23508 whole entry): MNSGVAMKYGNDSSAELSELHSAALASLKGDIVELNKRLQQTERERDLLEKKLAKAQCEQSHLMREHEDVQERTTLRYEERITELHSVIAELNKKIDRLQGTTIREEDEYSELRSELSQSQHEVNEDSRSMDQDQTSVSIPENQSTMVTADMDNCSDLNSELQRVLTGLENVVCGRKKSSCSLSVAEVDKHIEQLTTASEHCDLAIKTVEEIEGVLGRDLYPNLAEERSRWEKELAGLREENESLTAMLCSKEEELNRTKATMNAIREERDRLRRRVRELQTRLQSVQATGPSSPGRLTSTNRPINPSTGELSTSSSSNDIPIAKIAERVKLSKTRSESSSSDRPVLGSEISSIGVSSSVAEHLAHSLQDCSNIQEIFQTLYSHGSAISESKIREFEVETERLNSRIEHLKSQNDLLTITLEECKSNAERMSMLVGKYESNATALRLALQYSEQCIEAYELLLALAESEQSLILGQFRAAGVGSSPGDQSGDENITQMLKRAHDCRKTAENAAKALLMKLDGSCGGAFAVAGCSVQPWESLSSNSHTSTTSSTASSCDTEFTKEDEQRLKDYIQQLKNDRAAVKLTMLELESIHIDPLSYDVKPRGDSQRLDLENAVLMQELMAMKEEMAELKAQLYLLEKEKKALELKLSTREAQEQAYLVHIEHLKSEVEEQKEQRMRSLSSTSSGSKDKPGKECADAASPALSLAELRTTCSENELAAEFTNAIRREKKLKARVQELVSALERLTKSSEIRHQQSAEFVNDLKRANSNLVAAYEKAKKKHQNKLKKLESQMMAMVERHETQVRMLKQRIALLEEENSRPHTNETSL
Assay [7] has the same target. This is another data set of the same source.

Chain of scrib_human SCRIB (Q14160 whole entry): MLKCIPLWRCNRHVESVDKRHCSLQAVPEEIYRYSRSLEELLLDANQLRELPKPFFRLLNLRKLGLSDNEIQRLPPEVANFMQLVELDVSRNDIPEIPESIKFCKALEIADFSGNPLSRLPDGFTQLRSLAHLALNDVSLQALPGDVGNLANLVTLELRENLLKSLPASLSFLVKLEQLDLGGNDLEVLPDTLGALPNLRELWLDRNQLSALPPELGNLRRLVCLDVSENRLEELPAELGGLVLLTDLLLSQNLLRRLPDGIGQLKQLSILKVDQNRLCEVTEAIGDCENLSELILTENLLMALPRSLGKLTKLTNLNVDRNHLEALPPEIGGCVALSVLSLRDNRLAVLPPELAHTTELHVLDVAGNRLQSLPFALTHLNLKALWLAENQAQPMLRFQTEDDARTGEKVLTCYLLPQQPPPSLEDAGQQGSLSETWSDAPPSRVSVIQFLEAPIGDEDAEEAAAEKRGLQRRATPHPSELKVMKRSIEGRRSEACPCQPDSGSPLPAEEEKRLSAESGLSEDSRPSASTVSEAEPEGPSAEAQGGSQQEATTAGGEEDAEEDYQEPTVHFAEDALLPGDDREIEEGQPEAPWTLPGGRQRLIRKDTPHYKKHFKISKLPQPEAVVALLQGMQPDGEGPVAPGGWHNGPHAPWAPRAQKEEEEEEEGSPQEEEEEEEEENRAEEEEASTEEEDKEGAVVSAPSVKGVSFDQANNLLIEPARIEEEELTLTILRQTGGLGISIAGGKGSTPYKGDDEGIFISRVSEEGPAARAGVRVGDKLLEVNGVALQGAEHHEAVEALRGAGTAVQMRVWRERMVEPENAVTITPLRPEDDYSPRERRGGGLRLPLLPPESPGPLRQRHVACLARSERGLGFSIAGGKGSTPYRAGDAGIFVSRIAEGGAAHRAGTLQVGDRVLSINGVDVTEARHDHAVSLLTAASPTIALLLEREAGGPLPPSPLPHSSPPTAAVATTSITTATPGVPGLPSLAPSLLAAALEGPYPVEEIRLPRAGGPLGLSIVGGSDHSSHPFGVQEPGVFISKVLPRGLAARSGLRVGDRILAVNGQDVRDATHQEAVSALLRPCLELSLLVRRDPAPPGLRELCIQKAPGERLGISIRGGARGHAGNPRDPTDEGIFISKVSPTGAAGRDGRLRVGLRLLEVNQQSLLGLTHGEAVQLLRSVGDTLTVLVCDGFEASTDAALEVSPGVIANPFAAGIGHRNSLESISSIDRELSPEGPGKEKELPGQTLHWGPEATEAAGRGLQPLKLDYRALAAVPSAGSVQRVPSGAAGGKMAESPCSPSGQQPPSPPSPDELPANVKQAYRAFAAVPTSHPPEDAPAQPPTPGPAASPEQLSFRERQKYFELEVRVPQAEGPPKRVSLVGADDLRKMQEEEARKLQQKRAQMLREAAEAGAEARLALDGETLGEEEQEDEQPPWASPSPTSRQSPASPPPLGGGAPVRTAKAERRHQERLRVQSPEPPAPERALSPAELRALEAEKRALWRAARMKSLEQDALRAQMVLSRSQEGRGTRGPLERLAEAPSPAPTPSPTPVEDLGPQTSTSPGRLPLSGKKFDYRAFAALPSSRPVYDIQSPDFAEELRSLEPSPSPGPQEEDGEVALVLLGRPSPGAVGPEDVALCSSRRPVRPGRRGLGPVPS
Chain of ks6a2_human RPS6KA2 (Q15349 whole entry): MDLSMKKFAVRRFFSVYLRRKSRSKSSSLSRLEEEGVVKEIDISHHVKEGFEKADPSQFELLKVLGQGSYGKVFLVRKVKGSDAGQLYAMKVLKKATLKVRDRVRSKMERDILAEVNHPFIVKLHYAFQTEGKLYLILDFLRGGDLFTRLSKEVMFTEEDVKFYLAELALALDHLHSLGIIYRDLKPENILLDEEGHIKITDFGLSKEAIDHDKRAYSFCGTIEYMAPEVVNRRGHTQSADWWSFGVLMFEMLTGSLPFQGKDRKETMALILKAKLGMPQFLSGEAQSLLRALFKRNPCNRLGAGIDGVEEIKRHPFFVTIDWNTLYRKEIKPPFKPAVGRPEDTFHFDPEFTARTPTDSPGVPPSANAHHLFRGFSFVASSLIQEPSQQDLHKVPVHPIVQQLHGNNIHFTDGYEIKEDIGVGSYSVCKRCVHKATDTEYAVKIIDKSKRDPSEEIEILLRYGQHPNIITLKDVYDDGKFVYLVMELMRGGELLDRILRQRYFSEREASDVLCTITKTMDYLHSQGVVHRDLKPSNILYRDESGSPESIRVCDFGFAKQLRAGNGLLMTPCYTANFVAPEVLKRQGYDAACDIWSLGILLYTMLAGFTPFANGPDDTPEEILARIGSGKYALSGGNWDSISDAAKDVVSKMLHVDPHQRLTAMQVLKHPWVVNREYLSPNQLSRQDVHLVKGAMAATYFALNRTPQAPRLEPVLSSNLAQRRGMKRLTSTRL
Chain of Wilms tumor protein 1-interacting protein (Homo sapiens), A6NIX2 S422E (A6NIX2 whole entry S422E): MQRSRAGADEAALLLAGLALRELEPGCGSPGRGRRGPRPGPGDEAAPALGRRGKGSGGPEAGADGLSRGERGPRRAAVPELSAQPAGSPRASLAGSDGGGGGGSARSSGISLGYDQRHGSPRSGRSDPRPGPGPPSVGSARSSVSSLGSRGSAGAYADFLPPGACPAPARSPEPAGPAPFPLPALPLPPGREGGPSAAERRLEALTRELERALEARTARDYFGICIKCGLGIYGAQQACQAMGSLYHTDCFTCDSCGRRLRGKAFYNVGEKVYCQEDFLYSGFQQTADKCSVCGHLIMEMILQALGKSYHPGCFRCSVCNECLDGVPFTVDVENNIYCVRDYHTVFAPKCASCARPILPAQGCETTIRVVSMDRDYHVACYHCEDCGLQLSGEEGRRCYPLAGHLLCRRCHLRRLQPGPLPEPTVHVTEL
Chain of dlg1_human DLG1 (Q12959 whole entry, looked up): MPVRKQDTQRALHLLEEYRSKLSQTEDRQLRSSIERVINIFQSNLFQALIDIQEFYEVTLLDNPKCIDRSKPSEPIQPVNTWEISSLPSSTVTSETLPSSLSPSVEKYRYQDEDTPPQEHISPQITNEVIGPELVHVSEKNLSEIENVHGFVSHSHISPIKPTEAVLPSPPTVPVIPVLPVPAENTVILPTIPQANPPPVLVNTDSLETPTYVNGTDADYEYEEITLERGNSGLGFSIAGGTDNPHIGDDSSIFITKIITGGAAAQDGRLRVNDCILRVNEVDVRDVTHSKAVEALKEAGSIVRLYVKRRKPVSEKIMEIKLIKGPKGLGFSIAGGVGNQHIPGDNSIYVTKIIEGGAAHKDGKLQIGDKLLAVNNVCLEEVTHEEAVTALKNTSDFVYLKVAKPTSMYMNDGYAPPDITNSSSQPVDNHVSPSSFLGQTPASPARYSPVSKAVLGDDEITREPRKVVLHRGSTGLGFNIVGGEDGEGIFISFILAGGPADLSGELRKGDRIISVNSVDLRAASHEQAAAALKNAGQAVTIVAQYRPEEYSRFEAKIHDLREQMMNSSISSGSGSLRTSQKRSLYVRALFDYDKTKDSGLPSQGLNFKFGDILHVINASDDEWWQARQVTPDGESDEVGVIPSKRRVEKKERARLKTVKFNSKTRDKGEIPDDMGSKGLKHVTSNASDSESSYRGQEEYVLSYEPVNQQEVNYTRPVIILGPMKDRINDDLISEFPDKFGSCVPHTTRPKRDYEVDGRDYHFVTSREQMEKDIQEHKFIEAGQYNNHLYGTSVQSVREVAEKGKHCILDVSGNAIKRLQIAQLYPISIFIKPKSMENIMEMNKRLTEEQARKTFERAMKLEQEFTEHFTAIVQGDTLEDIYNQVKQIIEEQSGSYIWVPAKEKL

For the substance “Protein TANC1 (Homo sapiens), Q9C0D5 S1855E”, the “effect of a mutation on the interaction” value with scrib_human SCRIB [1] and in the assay with dlg1_human DLG1 was “decreasing interaction strength” throughout.
Turning to “Protein scribble homolog (Homo sapiens), Q14160 K746A”, the “effect of a mutation on the interaction” value is “decreasing interaction strength” with ks6a2_human RPS6KA2 [2] and “increasing interaction strength” with ks6a2_human RPS6KA2 [3].
Take “Protein scribble homolog (Homo sapiens), Q14160 A743R”: the “effect of a mutation on the interaction” value with ks6a2_human RPS6KA2 [2] was “increasing interaction strength”.
Consider “Asparagine synthetase domain-containing protein 1 (Homo sapiens), Q9NWL6 T641E”, for which, in the assay with scrib_human SCRIB [4], the “effect of a mutation on the interaction” value is recorded as “disrupting interaction strength”.
On to “Protein scribble homolog (Homo sapiens), Q14160 R801A”, for which the “effect of a mutation on the interaction” value with ks6a2_human RPS6KA2 [2] is recorded as “decreasing interaction strength”.
On to “Wilms tumor protein 1-interacting protein (Homo sapiens), A6NIX2 S422E”, for which the “effect of a mutation on the interaction” value with scrib_human SCRIB [5] is “with no effect”.
“Protein scribble homolog (Homo sapiens), Q14160 R762A”: the “effect of a mutation on the interaction” value with crcm_human MCC [6] was “decreasing interaction strength”; in the assay with ks6a2_human RPS6KA2 [2], “decreasing interaction strength”; with ks6a2_human RPS6KA2 [3], “increasing interaction strength”.
In the case of “Protein scribble homolog (Homo sapiens), Q14160 A743R;R762A”, the results for the “effect of a mutation on the interaction” value with crcm_human MCC [6], with crcm_human MCC [7] and in the assay with ks6a2_human RPS6KA2 [2] were “decreasing interaction strength”, “with no effect” and “decreasing interaction strength”, respectively.
